Results as given in patent publication US20260153518.

What was measured:
[1] = target: candidate peptide No. 2 (hCCL-14 positions 61-74), 5-carboxyfluorescein labelled
[2] = target: PJ-8 (positive control peptide)
[3] = target: candidate peptide No. 11 (hIFN-gamma positions 126-139), 5-carboxyfluorescein labelled
[4] = target: candidate peptide No. 17 (mCXCL-1 positions 1-14, Cys replaced with Ser), 5-carboxyfluorescein labelled
[5] = target: candidate peptide No. 15 (mIFN-gamma positions 128-141), 5-carboxyfluorescein labelled
[6] = target: candidate peptide No. 20 (hCXCL-3 positions 1-14, Cys replaced with Ser), 5-carboxyfluorescein labelled
[7] = target: candidate peptide No. 22 (hCXCL-5 positions 3-15, Cys replaced with Ser), 5-carboxyfluorescein labelled
[8] = target: candidate peptide No. 5 (hIFN-alpha-6 positions 154-165), 5-carboxyfluorescein labelled
[9] = target: PP-2b (positive control peptide)
[10] = target: candidate peptide No. 19 (hCXCL-7 positions 76-89), 5-carboxyfluorescein labelled
[11] = target: candidate peptide No. 4 (hIFN-alpha-10 positions 150-161), 5-carboxyfluorescein labelled
[12] = target: candidate peptide No. 7 (hIFN-alpha-2 positions 154-165), 5-carboxyfluorescein labelled
[13] = target: candidate peptide No. 6 (hIFN-alpha-6 positions 150-161), 5-carboxyfluorescein labelled
[14] = target: candidate peptide No. 16 (mIFN-gamma positions 143-154), 5-carboxyfluorescein labelled

B1: human MMP12 (matrix metalloproteinase 12), activated with APMA (protein)
chain: GPVWRKHYITYRINNYTPDMNREDVDYAIRKAFQVWSNVTPLKFSKINTGMADILVVFARGAHGDFHAFDGKGGILAHAFGPGSGIGGDAHFDEDEFWTTHSGGTNLFLTAVHEIGHSLGLGHSSDPKAVMFPTYKYVDINTFRLSADDIRGIQSLYGDPKENQRLPNPDNSEPALCDPNLSFDAVTTVGNKIFFFKDRFFWLKVSERPKTSVNLISSLWPTLPSGIEAAYEIEARNQVFLFKDDKYWLISNLRPEPNYPKSIHSFGFPNFVKKIDAAVFNPRFYRTYFFVDNQYWRYDERRQMMDPGYPKLITKNFQGIGPKIDAVFYSKNKYYYFFQGSNQFEYDFLLQRITKTLKSNSWFGC
In the case of B1, the Cleavage rate (%) [1] is reported as 56%, the “cleavage by MMP12 (UPLC)” value [2] is reported as “it was confirmed that the two positive controls were cleaved by MMP12 (data is not shown)” and the Cleavage rate (%) [3] is reported as 100%. It also gave a Cleavage rate (%) [4] of 98.6%, a Cleavage rate (%) [5] of 10.5% and a Cleavage rate (%) [6] of 100%. For the same protein, the Cleavage rate (%) [7] was 100%, the Cleavage rate (%) [8] was 38.5% and the “cleavage by MMP12 (UPLC)” value [9] was “it was confirmed that the two positive controls were cleaved by MMP12 (data is not shown)”. For the same protein, the Cleavage rate (%) [10] was 26%, the Cleavage rate (%) [11] was 53.5% and the Cleavage rate (%) [12] was 70.4%. It also gave a Cleavage rate (%) [13] of 90.3% and a Cleavage rate (%) [14] of 61.7%.
